Measurements taken from article PMC12802937 (Nucleic Acids Research, 2026).
Changes are numbered by the printed parent chain.

Columns and labels:
Experiment in all cases: SPR; Lge1-CT immobilised on a CM5 chip, Bre1-LR flown over; Biacore 8K, 25°C, 20 mM HEPES (pH 7.5), 200 mM sodium chloride, 0.02% Tween 20
Details in all cases: both partners purified
[1] = molecular target: T1, Bre1-LR (Bre1 residues 227–700, LBD and RING domains), 6× histidine tag (budding yeast, UniProt Q07457 227-700)
T1 construct: two Bre1 polypeptides form the dimeric coiled-coils of the LBD in the crystal structure; also called WT; source: E. coli BL21 Rosetta (DE3), purified (Ni-NTA, heparin, gel filtration)
T1 sequence (looked up): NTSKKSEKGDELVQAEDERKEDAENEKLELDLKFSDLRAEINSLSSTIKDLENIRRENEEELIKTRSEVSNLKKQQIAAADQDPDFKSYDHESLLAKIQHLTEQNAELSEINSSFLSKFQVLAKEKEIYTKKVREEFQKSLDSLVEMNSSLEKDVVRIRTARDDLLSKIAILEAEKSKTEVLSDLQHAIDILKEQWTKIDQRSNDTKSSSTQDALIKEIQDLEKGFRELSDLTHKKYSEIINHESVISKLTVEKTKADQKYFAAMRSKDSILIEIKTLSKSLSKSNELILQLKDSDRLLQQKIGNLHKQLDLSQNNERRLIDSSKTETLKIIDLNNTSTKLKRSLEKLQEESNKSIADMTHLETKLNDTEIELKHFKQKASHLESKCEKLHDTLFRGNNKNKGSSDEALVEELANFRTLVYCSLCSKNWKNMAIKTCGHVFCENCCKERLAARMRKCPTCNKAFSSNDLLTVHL

Bre1-LR E378K/E500K = molecular target: T2, Bre1-LR E378K/E500K (budding yeast, UniProt Q07457 227-700, E378K | E500K)
T2 construct: source: E. coli BL21 Rosetta (DE3), purified (Ni-NTA, heparin, gel filtration)
T2 sequence (looked up): T1 sequence (looked up) with E152K, E274K

Bre1-LR K379E = molecular target: T3, Bre1-LR K379E (budding yeast, UniProt Q07457 227-700, K379E)
T3 construct: source: E. coli BL21 Rosetta (DE3), purified (Ni-NTA, heparin, gel filtration)
T3 sequence (looked up): T1 sequence (looked up) with K153E

Bre1-LR V382N = molecular target: T4, Bre1-LR V382N (budding yeast, UniProt Q07457 227-700, V382N)
T4 construct: source: E. coli BL21 Rosetta (DE3), purified (Ni-NTA, heparin, gel filtration)
T4 sequence (looked up): T1 sequence (looked up) with V156N

Kd [1]: 17.5 nM
Kd (Bre1-LR E378K/E500K): 29 nM
Kd (Bre1-LR K379E): 41.3 nM
Kd (Bre1-LR V382N): 63 nM
B1: Lge1-CT (Lge1 residues 261–332), intein-chitin binding domain (CBD) tag construct (domain or fragment, budding yeast, UniProt Q02796 261-332, looked up)
chain: KNVKKTNNTESECEKAREVFKESDSIDSALEELNLKINSNELELRLLNNQCDKHALNIQLTQEKLDSLLLMQ
notes: Lge1, budding yeast, residues 261-332; residues 268–331 resolved in the electron density; the intein-CBD tag is named on the protein in the pull-down; also called intein-CBD-fused Lge1-CT; intein-CBD-tagged Lge1-CT; source: E. coli BL21 Rosetta (DE3): cleared cell extract on chitin resin (pull-down); purified (chitin, heparin, gel filtration) for ITC and SPR; co-purified with Bre1-LR for the …
